In patent US20140056878A1 (ANAPTYSBIO, published 2014):

Key:
complement protein C5 = complement protein C5 (UniProt P01031 19-673; P01031 678-1676); experiment: cell-based or functional assay
C5-C345C = molecular target: T1, C5-C345C (Homo sapiens (Human), UniProt P01031 1530-1676); experiment: BIACORE screening
T1 construct: C-terminal 147 amino acid residues of the 1648 residue C5 protein; A Myc-tagged or Dylight-650-labelled form was used for FACS selection; In the BIACORE analyses it is named only 'C5-C345C' analyte, and no tag is stated; also called C345C domain of complement C5 protein; C5 domain C5-C345C
T1 sequence (P01031 1530-1676 limits assumed): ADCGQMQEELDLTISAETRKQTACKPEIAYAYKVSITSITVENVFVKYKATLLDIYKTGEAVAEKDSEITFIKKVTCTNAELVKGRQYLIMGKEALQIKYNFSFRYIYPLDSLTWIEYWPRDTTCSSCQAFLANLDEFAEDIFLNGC

complement protein C5, sequence (P01031 19-673 limits assumed, chain 1 of 2): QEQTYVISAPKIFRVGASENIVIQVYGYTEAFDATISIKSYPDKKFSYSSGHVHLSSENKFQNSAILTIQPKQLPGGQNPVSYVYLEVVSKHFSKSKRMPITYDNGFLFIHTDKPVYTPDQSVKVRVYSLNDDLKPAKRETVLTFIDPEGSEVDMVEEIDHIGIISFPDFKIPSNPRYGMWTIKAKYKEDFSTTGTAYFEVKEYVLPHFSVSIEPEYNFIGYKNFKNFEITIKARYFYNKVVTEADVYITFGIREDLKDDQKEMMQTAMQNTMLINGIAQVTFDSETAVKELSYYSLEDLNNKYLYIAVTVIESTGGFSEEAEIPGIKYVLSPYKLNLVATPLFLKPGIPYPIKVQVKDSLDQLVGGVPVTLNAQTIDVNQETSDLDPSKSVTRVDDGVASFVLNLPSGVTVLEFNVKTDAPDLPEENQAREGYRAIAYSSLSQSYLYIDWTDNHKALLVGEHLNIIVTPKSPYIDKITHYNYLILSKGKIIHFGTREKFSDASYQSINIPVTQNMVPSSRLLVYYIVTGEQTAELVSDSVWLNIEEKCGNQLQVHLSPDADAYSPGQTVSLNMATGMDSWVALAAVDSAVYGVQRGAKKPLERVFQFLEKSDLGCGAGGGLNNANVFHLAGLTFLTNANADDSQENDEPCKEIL
complement protein C5, sequence (P01031 678-1676 limits assumed, chain 2 of 2): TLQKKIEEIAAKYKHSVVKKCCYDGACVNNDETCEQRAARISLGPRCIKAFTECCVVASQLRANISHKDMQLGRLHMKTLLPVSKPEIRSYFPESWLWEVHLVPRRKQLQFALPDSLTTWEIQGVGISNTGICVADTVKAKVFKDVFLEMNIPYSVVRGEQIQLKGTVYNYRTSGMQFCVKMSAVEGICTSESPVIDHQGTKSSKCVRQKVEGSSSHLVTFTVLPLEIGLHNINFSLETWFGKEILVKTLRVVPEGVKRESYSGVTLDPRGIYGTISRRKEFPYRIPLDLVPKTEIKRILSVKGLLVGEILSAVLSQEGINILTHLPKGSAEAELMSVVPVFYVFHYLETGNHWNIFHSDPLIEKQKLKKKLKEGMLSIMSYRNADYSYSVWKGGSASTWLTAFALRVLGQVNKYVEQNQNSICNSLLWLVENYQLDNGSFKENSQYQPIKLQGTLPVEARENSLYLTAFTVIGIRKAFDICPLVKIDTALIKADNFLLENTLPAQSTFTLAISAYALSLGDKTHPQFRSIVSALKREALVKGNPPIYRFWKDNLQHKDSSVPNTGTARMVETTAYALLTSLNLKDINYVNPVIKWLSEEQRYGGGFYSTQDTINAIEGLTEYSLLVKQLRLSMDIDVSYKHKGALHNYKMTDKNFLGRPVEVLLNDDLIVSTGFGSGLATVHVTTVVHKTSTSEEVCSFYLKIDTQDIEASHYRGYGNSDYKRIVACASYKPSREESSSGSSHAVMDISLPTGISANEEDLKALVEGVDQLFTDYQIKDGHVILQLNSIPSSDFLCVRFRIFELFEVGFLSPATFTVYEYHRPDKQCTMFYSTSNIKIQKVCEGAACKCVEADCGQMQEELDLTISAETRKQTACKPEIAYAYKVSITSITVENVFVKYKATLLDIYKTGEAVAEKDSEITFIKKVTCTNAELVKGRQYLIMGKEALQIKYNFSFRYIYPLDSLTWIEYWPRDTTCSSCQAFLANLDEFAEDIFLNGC

Row | Kd (C5-C345C) [nM] | fold improvement in KD over APE777 (C5-C345C) [fold] | Binder | inhibition of hemolysis of antibody-coated sheep erythrocytes (classical complement pathway, 1% normal human serum) (complement protein C5) [µM]
1 |  |  | APE1142 (antibody, IgG1, V domains shown) VH: EVQLLESGGGLVQPGGSLRLSCAASGFTFSSYAMTWVRQAPGKGLEWVSVISGSGSTYYADSVKGRFTISRDNSKNTLYLQMNSLRAEDTAVYYCARRGLRYNYFDYWGQGTTLTVSS VL: not shown | 1
2 | 0.2 | 1000 | APE1224 (antibody, V domains shown) VH: EVQLLESGGGLVQPGGSLRLSCAASGFTFSSYAMTWVRQAPGKGLEWVSAISGSGSTYYADSVKGRFTISRDNSKNTLYLQMNSLRAEDTAVYYCARRGLRYNYFDYWGQGTTLTVSS VL: not shown | 1
